For 47 variants, abundance fitness results are on record in the Human Domainome abundance scans (Beltran et al. 2025).

Sequences and labels used below:
B1: Nucleosome-remodeling factor subunit BPTF, residues 2862 to 2918; numbered along this chain, Q12830 (parent)
chain: TKKDTKLYCICKTPYDESKFYIGCDRCQNWYHGRCVGILQSEAELIDEYVCPQCQST

± gives the uncertainty stated by the source.

The variants in the data set derive from B1. As to the kind of experiment: abundance fitness (aPCA) (normalised: wild type 0, dead -1); higher = more abundant; growth selection in yeast, the domain comes from the species named. The conditions noted are these: Homo sapiens.
Turning to TKKDTKLYCICKTPYDFSKFYIGCDRCQNWYHGRCVGILQSEAELIDEYVCPQCQST [E17F], the abundance fitness was -0.052 ± 0.11.
To TKKDTKLYCICKTPYDGSKFYIGCDRCQNWYHGRCVGILQSEAELIDEYVCPQCQST [E17G] belongs 0.055 ± 0.08; to TKKDTKLYCICKTPYDWSKFYIGCDRCQNWYHGRCVGILQSEAELIDEYVCPQCQST [E17W], -0.412 ± 0.081; to TKKDTKLYCICKTPYDLSKFYIGCDRCQNWYHGRCVGILQSEAELIDEYVCPQCQST [E17L], -0.172 ± 0.065.
Take TKKDTKLYCICKTPYDSSKFYIGCDRCQNWYHGRCVGILQSEAELIDEYVCPQCQST [E17S]: the abundance fitness was -0.065 ± 0.078.
To TKKDTKLYCICKTPYDYSKFYIGCDRCQNWYHGRCVGILQSEAELIDEYVCPQCQST [E17Y] belongs -0.294 ± 0.12; to TKKDTKLYCICKTPYDRSKFYIGCDRCQNWYHGRCVGILQSEAELIDEYVCPQCQST [E17R], -0.304 ± 0.063.
The same measure for TKKDTKLYCICKTPYDKSKFYIGCDRCQNWYHGRCVGILQSEAELIDEYVCPQCQST [E17K]: -0.013 ± 0.099.
To TKKDTKLYCICKTPYDTSKFYIGCDRCQNWYHGRCVGILQSEAELIDEYVCPQCQST [E17T] belongs -0.2 ± 0.083; to TKKDTKLYCICKTPYDQSKFYIGCDRCQNWYHGRCVGILQSEAELIDEYVCPQCQST [E17Q], -0.074 ± 0.09.
Consider TKKDTKLYCICKTPYDEQKFYIGCDRCQNWYHGRCVGILQSEAELIDEYVCPQCQST [S18Q], for which the abundance fitness is -0.5 ± 0.29.
To TKKDTKLYCICKTPYDEYKFYIGCDRCQNWYHGRCVGILQSEAELIDEYVCPQCQST [S18Y] belongs -0.37 ± 0.13.
The same measure for TKKDTKLYCICKTPYDEGKFYIGCDRCQNWYHGRCVGILQSEAELIDEYVCPQCQST [S18G]: -0.087 ± 0.1.
To TKKDTKLYCICKTPYDERKFYIGCDRCQNWYHGRCVGILQSEAELIDEYVCPQCQST [S18R] belongs -0.24 ± 0.095; to TKKDTKLYCICKTPYDETKFYIGCDRCQNWYHGRCVGILQSEAELIDEYVCPQCQST [S18T], -0.198 ± 0.12.
As to TKKDTKLYCICKTPYDENKFYIGCDRCQNWYHGRCVGILQSEAELIDEYVCPQCQST [S18N], the abundance fitness was -0.185 ± 0.14.
To TKKDTKLYCICKTPYDEVKFYIGCDRCQNWYHGRCVGILQSEAELIDEYVCPQCQST [S18V] belongs -0.72 ± 0.12; to TKKDTKLYCICKTPYDEWKFYIGCDRCQNWYHGRCVGILQSEAELIDEYVCPQCQST [S18W], -0.746 ± 0.21; to TKKDTKLYCICKTPYDEIKFYIGCDRCQNWYHGRCVGILQSEAELIDEYVCPQCQST [S18I], -1.05 ± 0.26.
For the variant TKKDTKLYCICKTPYDECKFYIGCDRCQNWYHGRCVGILQSEAELIDEYVCPQCQST [S18C], the abundance fitness is -0.366 ± 0.1.
The same measure for TKKDTKLYCICKTPYDEFKFYIGCDRCQNWYHGRCVGILQSEAELIDEYVCPQCQST [S18F]: -0.582 ± 0.14; for TKKDTKLYCICKTPYDEPKFYIGCDRCQNWYHGRCVGILQSEAELIDEYVCPQCQST [S18P]: -0.759 ± 0.13.
The same measure for TKKDTKLYCICKTPYDEDKFYIGCDRCQNWYHGRCVGILQSEAELIDEYVCPQCQST [S18D]: -0.031 ± 0.19; for TKKDTKLYCICKTPYDEKKFYIGCDRCQNWYHGRCVGILQSEAELIDEYVCPQCQST [S18K]: -0.277 ± 0.27.
With TKKDTKLYCICKTPYDEHKFYIGCDRCQNWYHGRCVGILQSEAELIDEYVCPQCQST [S18H], the abundance fitness is -0.098 ± 0.11.
The same measure for TKKDTKLYCICKTPYDEMKFYIGCDRCQNWYHGRCVGILQSEAELIDEYVCPQCQST [S18M]: -0.284 ± 0.23.
To TKKDTKLYCICKTPYDEAKFYIGCDRCQNWYHGRCVGILQSEAELIDEYVCPQCQST [S18A] belongs -0.217 ± 0.14; to TKKDTKLYCICKTPYDELKFYIGCDRCQNWYHGRCVGILQSEAELIDEYVCPQCQST [S18L], -0.536 ± 0.1; to TKKDTKLYCICKTPYDESGFYIGCDRCQNWYHGRCVGILQSEAELIDEYVCPQCQST [K19G], -0.244 ± 0.11.
In the case of TKKDTKLYCICKTPYDESYFYIGCDRCQNWYHGRCVGILQSEAELIDEYVCPQCQST [K19Y], the abundance fitness is -0.286 ± 0.13.
To TKKDTKLYCICKTPYDESIFYIGCDRCQNWYHGRCVGILQSEAELIDEYVCPQCQST [K19I] belongs -0.101 ± 0.089; to TKKDTKLYCICKTPYDESRFYIGCDRCQNWYHGRCVGILQSEAELIDEYVCPQCQST [K19R], 0.048 ± 0.1.
The same measure for TKKDTKLYCICKTPYDESPFYIGCDRCQNWYHGRCVGILQSEAELIDEYVCPQCQST [K19P]: -0.637 ± 0.15; for TKKDTKLYCICKTPYDESQFYIGCDRCQNWYHGRCVGILQSEAELIDEYVCPQCQST [K19Q]: -0.097 ± 0.13; for TKKDTKLYCICKTPYDESDFYIGCDRCQNWYHGRCVGILQSEAELIDEYVCPQCQST [K19D]: 0.044 ± 0.12.
Turning to TKKDTKLYCICKTPYDESTFYIGCDRCQNWYHGRCVGILQSEAELIDEYVCPQCQST [K19T], the abundance fitness was -0.231 ± 0.1.
To TKKDTKLYCICKTPYDESHFYIGCDRCQNWYHGRCVGILQSEAELIDEYVCPQCQST [K19H] belongs 0.007 ± 0.14; to TKKDTKLYCICKTPYDESLFYIGCDRCQNWYHGRCVGILQSEAELIDEYVCPQCQST [K19L], -0.059 ± 0.071; to TKKDTKLYCICKTPYDESVFYIGCDRCQNWYHGRCVGILQSEAELIDEYVCPQCQST [K19V], -0.108 ± 0.087.
As for TKKDTKLYCICKTPYDESFFYIGCDRCQNWYHGRCVGILQSEAELIDEYVCPQCQST [K19F], the abundance fitness was -0.351 ± 0.16.
To TKKDTKLYCICKTPYDESEFYIGCDRCQNWYHGRCVGILQSEAELIDEYVCPQCQST [K19E] belongs 0.106 ± 0.12; to TKKDTKLYCICKTPYDESCFYIGCDRCQNWYHGRCVGILQSEAELIDEYVCPQCQST [K19C], -0.252 ± 0.13.
To TKKDTKLYCICKTPYDESAFYIGCDRCQNWYHGRCVGILQSEAELIDEYVCPQCQST [K19A] belongs -0.069 ± 0.096.
The same measure for TKKDTKLYCICKTPYDESMFYIGCDRCQNWYHGRCVGILQSEAELIDEYVCPQCQST [K19M]: -0.08 ± 0.098; for TKKDTKLYCICKTPYDESWFYIGCDRCQNWYHGRCVGILQSEAELIDEYVCPQCQST [K19W]: -0.668 ± 0.17.
With TKKDTKLYCICKTPYDESSFYIGCDRCQNWYHGRCVGILQSEAELIDEYVCPQCQST [K19S], the abundance fitness is -0.186 ± 0.09.
The same measure for TKKDTKLYCICKTPYDESNFYIGCDRCQNWYHGRCVGILQSEAELIDEYVCPQCQST [K19N]: 0.082 ± 0.18.
